Measured values as given in US11207340B2, “Tumor suppressor TET1 and uses thereof” (The Chinese University of Hong Kong, priority 2017, dated 2021).
Entries after “also recorded” stand apart in the source; their conditions may differ.

B1: TET1-CD: Human TET1 catalytic domain (Cys-rich and DSBH regions), N-terminal Flag tag, expressed from pcDNA3.1 plasmid; SEQ ID NO:6 (protein, listed as Homo sapiens)
chain: ELPTCSCLDRVIQKDKGPYYTHLGAGPSVAAVREIMENRYGQKGNAIRIEIVVYTGKEGKSSHGCPIAKWVLRRSSDEEKVLCLVRQRTGHHCPTAVMVVLIMVWDGIPLPMADRLYTELTENLKSYNGHPTDRRCTLNENRTCTCQGIDPETCGASFSFGCSWSMYFNGCKFGRSPSPRRFRIDPSSPLHEKNLEDNLQSLATRLAPIYKQYAPVAYQNQVEYENVARECRLGSKEGRPFSGVTACLDFCAHPHRDIHNMNNGSTVVCTLTREDNRSLGVIPQDEQLHVLPLYKLSDTDEFGSKEGMEAKIKSGAIEVLAPRRKKRTCFTQPVPRSGKKRAAMMTEVLAHKIRAVEKKPIPRIKRKNNSTTTNNSKPSSLPTLGSNTETVQPEVKSETEPHFILKSSDNTKTYSLMPSAPHPVKEASPGFSWSPKTASATPAPLKNDATASCGFSERSSTPHCTMPSGRLSGANAAAADGPGISQLGEVAPLPTLSAPVMEPLINSEPSTGVTEPLTPHQPNHQPSFLTSPQDLASSPMEEDEQHSEADEPPSDEPLSDDPLSPAEEKLPHIDEYWSDSEHIFLDANIGGVAIAPAHGSVLIECARRELHATTPVEHPNRNHPTRLSLVFYQHKNLNKPQHGFELNKIKFEAKEAKNKKMKASEQKDQAANEGPEQSSEVNELNQIPSHKALTLTHDNVVTVSPYALTHVAGPYNHWV
modifications: N-terminal Flag tag

Columns and labels:
Type in all cases: cell-based, human
TET1 = assay: Demethylation treatment of silenced tumor cell lines: TET1 expression by semi-quantitative RT-PCR; details: 10 μmol/L Aza 3 days, alone or combined with HDAC inhibitor; nasopharyngeal, esophageal, colon, breast and renal tumor cell lines with methylated TET1
Description: Human tumor cell lines of multiple tissue types were used^50-55, including nasopharyngeal (NPC), esophageal squamous cell (ESCC), lung, gastric, colorectal (CRC), hepatocellular (HCC), breast, cervical, renal (RCC), bladder and prostate carcinomas, melanoma, as well as non-Hodgkin (NHL), Hodgkin (HL) and nasal natural killer (NK)/T-cell (NKTCL) lymphomas. Immortalized, non-transformed normal epithelial cell lines were used as “normal” controls. Cell lines were obtained from either American Type Culture Collection or collaborators. When needed, cell lines were treated with 10 μmol/L 5-aza-2′-deoxycytidine (Aza) (Sigma-aldrich, St Louis, Mo.) for 3 days, without or with further treatment with 100 nmol/trichostatin A (TSA) (Cayman Chemical Co., Ann Arbor, Mich.) for additional ˜16 h as previously^50,53. Normal adult and fetal tissue RNA and DNA samples were purchased commercially (Stratagene, La Jolla, Calif.; Millipore-Chemicon, Billerica, Mass.). […]
(§1) Semi-quantitative RT-PCR and quantitative real-time PCR were performed as described before^50,53, with GAPDH as a control for all the samples shown in previous publications^31,51,52. qRT-PCR was carried out according to the manufacturer's protocol (HT7900 system; applied Biosystems), with SYBR Green master mix (applied Biosystems) used.

TET1 promoter = assay: Demethylation treatment of silenced tumor cell lines: TET1 promoter methylation by MSP and BGS; details: for TET1 promoter demethylation (unmethylated promoter alleles) by MSP: 10 μmol/L Aza 3 days, without or with TSA ~16 h, silenced tumor cell lines
Description: Human tumor cell lines of multiple tissue types were used^50-55, including nasopharyngeal (NPC), esophageal squamous cell (ESCC), lung, gastric, colorectal (CRC), hepatocellular (HCC), breast, cervical, renal (RCC), bladder and prostate carcinomas, melanoma, as well as non-Hodgkin (NHL), Hodgkin (HL) and nasal natural killer (NK)/T-cell (NKTCL) lymphomas. Immortalized, non-transformed normal epithelial cell lines were used as “normal” controls. Cell lines were obtained from either American Type Culture Collection or collaborators. When needed, cell lines were treated with 10 μmol/L 5-aza-2′-deoxycytidine (Aza) (Sigma-aldrich, St Louis, Mo.) for 3 days, without or with further treatment with 100 nmol/trichostatin A (TSA) (Cayman Chemical Co., Ann Arbor, Mich.) for additional ˜16 h as previously^50,53. Normal adult and fetal tissue RNA and DNA samples were purchased commercially (Stratagene, La Jolla, Calif.; Millipore-Chemicon, Billerica, Mass.). DNA samples of primary carcinomas, nose swab from suspected NPC patients, as well as surgical margin normal tissues, have been described previously^31,51,52.
(§2) CpG island (CGI) analysis for TET1 promoter and exon 1 was performed using CpG island Searcher (http//ccnt.hsc.usc.edu/cpgislands2). Bisulfite modification of genomic DNA was carried out as described previously^56,57. For MSP analysis, approximately 50 ng of bisulfited DNA for each sample was amplified with methylation- or unmethylation-specific primer set, according to previously reported MSP protocol^58. Bisulfite-treated DNA was also amplified using a set of BGS primers, then cloned into pCR4-TOPO vector (Invitrogen, Carlsbad, Calif.), with 8-10 clones randomly picked and sequenced.

[1] = test system: HOXA9, SLIT2 and ZNF382 promoters; assay: TSG promoter methylation by MSP in TET1-CD-expressing tumor cells
Description: as §2
(§3) Human TET1 catalytic domain (TET1-CD) cDNA and its catalytic domain mutant (TET1-CD-mut) clones (Addgene, Cambridge, Mass.) were used as templates to generate TET1 constructs with an N-terminal Flag tag, and subcloned into pcDNA3.1 vector (Invitrogen, Carlsbad, Calif.). Cells were cultured overnight in a 12-well plate and transfected with empty vector or TET1-CD, TET1-CD-mut-expressing plasmids using Lipofectamine 2000 (Invitrogen, Carlsbad, Calif.). Forty-eight hours later, transfectants were replated in triplicate and cultured for 10-15 days in complete medium containing G418. Surviving colonies were stained with crystal violet (0.5% w/v) after methanol fixation, with visible colonies (≥50 cells) counted.

NPC tumor cells (HONE1) = assay: TUNEL assay; details: compared with vector or TET1-CD-mut controls
Description: Cells cultured on coverslips were fixed with 4% paraformaldehyde, and permeabilized with 0.1% triton X-100. TUNEL (Terminal deoxynucleotidyl transferase dUTP nick end labeling) staining was performed using the In Situ Cell Death Detection Kit (Roche, Mannheim, Germany).

[2] = test system: NPC, ESCC, gastric, colon and breast tumor cells; assay: Colony formation assay of tumor cells; details: ectopic expression
Description: as §3

[3] = test system: HOXA9, HOXA5, PCDH7, TCF4, MEIS1, SLIT2 and ZNF382; assay: TSG expression by semi-quantitative RT-PCR and qRT-PCR in TET1-CD-expressing carcinoma cells
Description: as §1, §3

| Molecule | TET1 expression after treatment (TET1) | TET1 promoter demethylation (unmethylated promoter alleles) by MSP (TET1 promoter) | TET1 promoter demethylation (unmethylated promoter alleles) by MSP (TET1 promoter; listed as Aza) | TET1 promoter CpG sites by BGS analysis (TET1 promoter; after Aza treatment, alone or combined with HDAC inhibitor) | methylated alleles of HOXA9, SLIT2 and ZNF382 promoters [1] | unmethylated promoter alleles of HOXA9, SLIT2 and ZNF382 [1] | numbers of apoptotic cells (NPC tumor cells (HONE1)) | tumor cell clonogenicity, % of control cells ([2]; NPC, ESCC, gastric, colon and breast tumor cells, vs control cells) | suppression of tumor cell clonogenicity / growth ([2]; colony formation assays of tumor cells of multiple tissue types) | TSG expression at mRNA levels (HOXA9, HOXA5, PCDH7, TCF4, MEIS1, SLIT2, ZNF382) [3] |
| --- | --- | --- | --- | --- | --- | --- | --- | --- | --- | --- |
| Nc1ncn([C@H]2C[C@H](O)[C@@H](CO)O2)c(=O)n1 [5-aza-dC, 5-aza-2′-deoxycytidine] | restoration | increased | demethylated | dramatically demethylated | – | – | – | – | – | – |
| B1 | – | – | – | – | decreased | increased | significantly increased; also recorded: induced | 40-50% | inhibited | Mild upregulation; also recorded: upregulated |
